Laboratory results reported in patent US20230303698A1 (HARBOUR BIOMED SHANGHAI, published 2023).

B1: PR003549 (bispecific antibody, human IgG1, kappa, L234A L235A)
light: DIQMTQSPSTLSASVGDRVTVTCRASQSIYIWLAWYQQKPGKAPNLLIYKASSLETGVPSRFSGSGSGTEFTLTISSLQPDDFATYYCQQYYGSSRTFGQGTKVEIKRTVAAPSVFIFPPSDEQLKSGTASVVCLLNNFYPREAKVQWKVDNALQSGNSQESVTEQDSKDSTYSLSSTLTLSKADYEKHKVYACEVTHQGLSSPVTKSFNRGEC
heavy: EVQLVESGGGLVQPGGSLRLSCAASGFTFSSYWMSWVRQAPGKGLEWVANIKQEGSEKYYVDSVKGRFTISRDNAKNSLYLQMNSLRAEDTAVYYCARDRAVAGAFDIWGQGTMVTVSSASTKGPSVFPLAPSSKSTSGGTAALGCLVKDYFPEPVTVSWNSGALTSGVHTFPAVLQSSGLYSLSSVVTVPSSSLGTQTYICNVNHKPSNTKVDKKVEPKSCDKTHTCPPCPAPEAAGGPSVFLFPPKPKDTLMISRTPEVTCVVVDVSHEDPEVKFNWYVDGVEVHNAKTKPREEQYNSTYRVVSVLTVLHQDWLNGKEYKCKVSNKALGAPIEKTISKAKGQPREPQVYTLPPSREEMTKNQVSLTCLVKGFYPSDIAVEWESNGQPENNYKTTPPVLDSDGSFFLYSKLTVDKSRWQQGNVFSCSVMHEALHNHYTQKSLSLSPGEPKSSDKTHTPPPPPRTEVQLLESGGGLVQLGGSLRLSCAASGFTFSRYAMTWVRQAPEKGLEWVSSISGSGDDTYYGDSVKGRFTISRDNSQNTVYLQMNSLRAEDTAVYFCAKEKAGTTGDYYYNVDVWGQGTTVTVSS
notes: Structure 1, IgG-VH tetravalent symmetric; PD-L1 Fab from PR000265, 4-1BB VH from PR001758; linker H1_15-RT; human IgG1 (AAG); also called PD-L1×4-1BB bispecific antibody molecule
B2: PR003551 (bispecific antibody, human IgG1, kappa, L234A L235A)
light: DIQMTQSPSTLSASVGDRVTVTCRASQSIYIWLAWYQQKPGKAPNLLIYKASSLETGVPSRFSGSGSGTEFTLTISSLQPDDFATYYCQQYYGSSRTFGQGTKVEIKRTVAAPSVFIFPPSDEQLKSGTASVVCLLNNFYPREAKVQWKVDNALQSGNSQESVTEQDSKDSTYSLSSTLTLSKADYEKHKVYACEVTHQGLSSPVTKSFNRGEC
heavy: EVQLVESGGGLVQPGGSLRLSCAASGFTFSSYWMSWVRQAPGKGLEWVANIKQEGSEKYYVDSVKGRFTISRDNAKNSLYLQMNSLRAEDTAVYYCARDRAVAGAFDIWGQGTMVTVSSASTKGPSVFPLAPSSKSTSGGTAALGCLVKDYFPEPVTVSWNSGALTSGVHTFPAVLQSSGLYSLSSVVTVPSSSLGTQTYICNVNHKPSNTKVDKKVEPKSCDKTHTCPPCPAPEAAGGPSVFLFPPKPKDTLMISRTPEVTCVVVDVSHEDPEVKFNWYVDGVEVHNAKTKPREEQYNSTYRVVSVLTVLHQDWLNGKEYKCKVSNKALGAPIEKTISKAKGQPREPQVYTLPPSREEMTKNQVSLTCLVKGFYPSDIAVEWESNGQPENNYKTTPPVLDSDGSFFLYSKLTVDKSRWQQGNVFSCSVMHEALHNHYTQKSLSLSPGEPKSSDKTHTPPPPPRTEVQLLESGGGLVQPGGSLRLSCAASGFIFSNFAMTWVRQPPEKGLKWVSSINGSGFNTYYTDSVKGRFTISRDNSRNTLYLQMNRLTAEDTAVYFCAKEGSSETDDHYYNVDVWGQGTTVTVSS
notes: Structure 1, IgG-VH tetravalent symmetric; PD-L1 Fab from PR000265, 4-1BB VH from PR001836; linker H1_15-RT; human IgG (AAG) as printed; also called PD-L1×4-1BB bispecific antibody molecule
B3: PR003562 (bispecific antibody, human IgG1, kappa, L234A L235A)
light: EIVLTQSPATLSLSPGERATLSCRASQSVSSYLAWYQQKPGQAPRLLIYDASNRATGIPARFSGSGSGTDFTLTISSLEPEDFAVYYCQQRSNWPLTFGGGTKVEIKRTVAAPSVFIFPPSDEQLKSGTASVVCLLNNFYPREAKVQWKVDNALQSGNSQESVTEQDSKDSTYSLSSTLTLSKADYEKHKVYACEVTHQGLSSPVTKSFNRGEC
heavy: EVQLLESGGGLVQPGGSLRLSCAASGFTFSSFVMSWVRQAPGKGLEWVSTISGSGRSTYYADSVKGRFTISRDNSKNTLHLQMNSLRAEDTAVYYCAKDAAAAGTKFDYWGQGTLVTVSSASTKGPSVFPLAPSSKSTSGGTAALGCLVKDYFPEPVTVSWNSGALTSGVHTFPAVLQSSGLYSLSSVVTVPSSSLGTQTYICNVNHKPSNTKVDKKVEPKSCDKTHTCPPCPAPEAAGGPSVFLFPPKPKDTLMISRTPEVTCVVVDVSHEDPEVKFNWYVDGVEVHNAKTKPREEQYNSTYRVVSVLTVLHQDWLNGKEYKCKVSNKALGAPIEKTISKAKGQPREPQVYTLPPSREEMTKNQVSLTCLVKGFYPSDIAVEWESNGQPENNYKTTPPVLDSDGSFFLYSKLTVDKSRWQQGNVFSCSVMHEALHNHYTQKSLSLSPGEPKSSDKTHTPPPPPRTEVQLLESGGGLVQLGGSLRLSCAASGFTFSRYAMTWVRQAPEKGLEWVSSISGSGDDTYYGDSVKGRFTISRDNSQNTVYLQMNSLRAEDTAVYFCAKEKAGTTGDYYYNVDVWGQGTTVTVSS
notes: Structure 1, IgG-VH; CLDN18.2 Fab from PR002726, 4-1BB VH from PR001758; linker H1_15-RT; human IgG1 (AAG); also called CLDN18.2×4-1BB bispecific antibody molecule
B4: PR001760, anti-4-1BB heavy-chain antibody 1016P0011G10 (antibody, human IgG1, V domains shown)
VH: EVQLVESGGGVVQPGGSLRLSCAASGFTFSNYAMTWVRQAPEKGLEWVSSISGSGVSTYYADSVKGRFTISRDNSKNTLYLQMTRLTAEDTAVYFCAKEGSSETDDHYYNVDVWGQGTTVTVSS
notes: Fully human heavy-chain antibody (HCAb), heavy chain dimer without light chains; also called anti-4-1BB HCAb antibody
B5: PR003563 (bispecific antibody, human IgG1, kappa, L234A L235A)
light: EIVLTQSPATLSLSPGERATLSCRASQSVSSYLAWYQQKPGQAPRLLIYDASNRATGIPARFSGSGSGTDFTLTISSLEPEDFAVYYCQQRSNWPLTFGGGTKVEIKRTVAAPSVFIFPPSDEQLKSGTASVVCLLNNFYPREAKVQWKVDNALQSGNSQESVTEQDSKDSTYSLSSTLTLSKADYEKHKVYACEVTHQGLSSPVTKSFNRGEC
heavy: EVQLLESGGGLVQPGGSLRLSCAASGFTFSSFVMSWVRQAPGKGLEWVSTISGSGRSTYYADSVKGRFTISRDNSKNTLHLQMNSLRAEDTAVYYCAKDAAAAGTKFDYWGQGTLVTVSSASTKGPSVFPLAPSSKSTSGGTAALGCLVKDYFPEPVTVSWNSGALTSGVHTFPAVLQSSGLYSLSSVVTVPSSSLGTQTYICNVNHKPSNTKVDKKVEPKSCDKTHTCPPCPAPEAAGGPSVFLFPPKPKDTLMISRTPEVTCVVVDVSHEDPEVKFNWYVDGVEVHNAKTKPREEQYNSTYRVVSVLTVLHQDWLNGKEYKCKVSNKALGAPIEKTISKAKGQPREPQVYTLPPSREEMTKNQVSLTCLVKGFYPSDIAVEWESNGQPENNYKTTPPVLDSDGSFFLYSKLTVDKSRWQQGNVFSCSVMHEALHNHYTQKSLSLSPGEPKSSDKTHTPPPPPRTEVQLVESGGGVVQPGGSLRLSCAASGFTFSNYAMTWVRQAPEKGLEWVSSISGSGVSTYYADSVKGRFTISRDNSKNTLYLQMTRLTAEDTAVYFCAKEGSSETDDHYYNVDVWGQGTTVTVSS
notes: Structure 1, IgG-VH; CLDN18.2 Fab from PR002726, 4-1BB VH from PR001760; linker H1_15-RT; human IgG1 (AAG); also called CLDN18.2×4-1BB bispecific antibody molecule
B6: PR003564 (bispecific antibody, human IgG1, kappa, L234A L235A)
light: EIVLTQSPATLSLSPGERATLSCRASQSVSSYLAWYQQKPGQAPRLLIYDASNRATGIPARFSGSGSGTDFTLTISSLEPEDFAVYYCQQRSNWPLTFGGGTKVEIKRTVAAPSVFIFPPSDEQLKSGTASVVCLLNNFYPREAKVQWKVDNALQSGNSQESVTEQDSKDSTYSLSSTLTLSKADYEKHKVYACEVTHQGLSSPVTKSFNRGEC
heavy: EVQLLESGGGLVQPGGSLRLSCAASGFTFSSFVMSWVRQAPGKGLEWVSTISGSGRSTYYADSVKGRFTISRDNSKNTLHLQMNSLRAEDTAVYYCAKDAAAAGTKFDYWGQGTLVTVSSASTKGPSVFPLAPSSKSTSGGTAALGCLVKDYFPEPVTVSWNSGALTSGVHTFPAVLQSSGLYSLSSVVTVPSSSLGTQTYICNVNHKPSNTKVDKKVEPKSCDKTHTCPPCPAPEAAGGPSVFLFPPKPKDTLMISRTPEVTCVVVDVSHEDPEVKFNWYVDGVEVHNAKTKPREEQYNSTYRVVSVLTVLHQDWLNGKEYKCKVSNKALGAPIEKTISKAKGQPREPQVYTLPPSREEMTKNQVSLTCLVKGFYPSDIAVEWESNGQPENNYKTTPPVLDSDGSFFLYSKLTVDKSRWQQGNVFSCSVMHEALHNHYTQKSLSLSPGEPKSSDKTHTPPPPPRTEVQLLESGGGLVQPGGSLRLSCAASGFIFSNFAMTWVRQPPEKGLKWVSSINGSGFNTYYTDSVKGRFTISRDNSRNTLYLQMNRLTAEDTAVYFCAKEGSSETDDHYYNVDVWGQGTTVTVSS
notes: Structure 1, IgG-VH; CLDN18.2 Fab from PR002726, 4-1BB VH from PR001836; linker H1_15-RT; human IgG1 (AAG); also called CLDN18.2×4-1BB bispecific antibody molecule
B7: PR007163 (bispecific antibody, human IgG1)
light: DIQMTQSPSTLSASVGDRVTVTCRASQSIYIWLAWYQQKPGKAPNLLIYKASSLETGVPSRFSGSGSGTEFTLTISSLQPDDFATYYCQQYYGSSRTFGQGTKVEIKRTVAAPSVFIFPPSDEQLKSGTASVVCLLNNFYPREAKVQWKVDNALQSGNSQESVTEQDSKDSTYSLSSTLTLSKADYEKHKVYACEVTHQGLSSPVTKSFNRGEC
heavy: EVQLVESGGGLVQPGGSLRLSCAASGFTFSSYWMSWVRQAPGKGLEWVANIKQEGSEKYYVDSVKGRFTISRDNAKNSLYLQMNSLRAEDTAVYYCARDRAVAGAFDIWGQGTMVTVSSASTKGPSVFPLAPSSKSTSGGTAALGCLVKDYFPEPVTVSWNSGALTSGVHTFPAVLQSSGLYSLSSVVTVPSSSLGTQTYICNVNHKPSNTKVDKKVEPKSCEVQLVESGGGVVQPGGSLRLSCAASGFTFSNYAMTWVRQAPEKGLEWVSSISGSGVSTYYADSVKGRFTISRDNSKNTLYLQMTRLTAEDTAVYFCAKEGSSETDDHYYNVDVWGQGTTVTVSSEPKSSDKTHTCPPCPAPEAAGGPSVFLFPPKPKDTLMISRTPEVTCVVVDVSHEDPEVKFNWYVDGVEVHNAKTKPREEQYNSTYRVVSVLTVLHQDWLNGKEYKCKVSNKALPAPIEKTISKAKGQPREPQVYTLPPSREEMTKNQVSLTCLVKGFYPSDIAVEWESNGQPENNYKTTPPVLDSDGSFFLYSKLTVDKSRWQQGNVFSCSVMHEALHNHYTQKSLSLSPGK
notes: Structure 4, Fab(CH1)-VH-Fc (Fab-HCAb); PD-L1 Fab from PR000265, 4-1BB VH from PR001760; no first linker, second linker human IgG1 hinge (C220S); human IgG1 (LALA); also called PD-L1×4-1BB bispecific antibody molecule, structure (4)
B8: PR003550 (bispecific antibody, human IgG1, kappa, L234A L235A)
light: DIQMTQSPSTLSASVGDRVTVTCRASQSIYIWLAWYQQKPGKAPNLLIYKASSLETGVPSRFSGSGSGTEFTLTISSLQPDDFATYYCQQYYGSSRTFGQGTKVEIKRTVAAPSVFIFPPSDEQLKSGTASVVCLLNNFYPREAKVQWKVDNALQSGNSQESVTEQDSKDSTYSLSSTLTLSKADYEKHKVYACEVTHQGLSSPVTKSFNRGEC
heavy: EVQLVESGGGLVQPGGSLRLSCAASGFTFSSYWMSWVRQAPGKGLEWVANIKQEGSEKYYVDSVKGRFTISRDNAKNSLYLQMNSLRAEDTAVYYCARDRAVAGAFDIWGQGTMVTVSSASTKGPSVFPLAPSSKSTSGGTAALGCLVKDYFPEPVTVSWNSGALTSGVHTFPAVLQSSGLYSLSSVVTVPSSSLGTQTYICNVNHKPSNTKVDKKVEPKSCDKTHTCPPCPAPEAAGGPSVFLFPPKPKDTLMISRTPEVTCVVVDVSHEDPEVKFNWYVDGVEVHNAKTKPREEQYNSTYRVVSVLTVLHQDWLNGKEYKCKVSNKALGAPIEKTISKAKGQPREPQVYTLPPSREEMTKNQVSLTCLVKGFYPSDIAVEWESNGQPENNYKTTPPVLDSDGSFFLYSKLTVDKSRWQQGNVFSCSVMHEALHNHYTQKSLSLSPGEPKSSDKTHTPPPPPRTEVQLVESGGGVVQPGGSLRLSCAASGFTFSNYAMTWVRQAPEKGLEWVSSISGSGVSTYYADSVKGRFTISRDNSKNTLYLQMTRLTAEDTAVYFCAKEGSSETDDHYYNVDVWGQGTTVTVSS
notes: Structure 1, IgG-VH tetravalent symmetric; PD-L1 Fab from PR000265, 4-1BB VH from PR001760; linker H1_15-RT; human IgG1 (AAG); also called PD-L1×4-1BB bispecific antibody molecule
B9: PR000265, anti-PD-L1 91G3H5H3(D54E), hIgG1(N297A) (antibody, V domains shown)
VH: EVQLVESGGGLVQPGGSLRLSCAASGFTFSSYWMSWVRQAPGKGLEWVANIKQEGSEKYYVDSVKGRFTISRDNAKNSLYLQMNSLRAEDTAVYYCARDRAVAGAFDIWGQGTMVTVSS
VL: DIQMTQSPSTLSASVGDRVTVTCRASQSIYIWLAWYQQKPGKAPNLLIYKASSLETGVPSRFSGSGSGTEFTLTISSLQPDDFATYYCQQYYGSSRTFGQGTKVEIKR
notes: Parent monoclonal antibody of the PD-L1 end
B10: PR004270 (bispecific antibody, human IgG1)
chain 1: EVQLVESGGGLVQPGGSLRLSCAASGFTFSSYWMSWVRQAPGKGLEWVANIKQEGSEKYYVDSVKGRFTISRDNAKNSLYLQMNSLRAEDTAVYYCARDRAVAGAFDIWGQGTMVTVSSASTKGPSVFPLAPSSKSTSGGTAALGCLVKDYFPEPVTVSWNSGALTSGVHTFPAVLQSSGLYSLSSVVTVPSSSLGTQTYICNVNHKPSNTKVDKKVEPKSC
chain 2: not shown
notes: Structure 3, Fab(CL)-VH-Fc (Fab-HCAb) tetravalent symmetric; PD-L1 Fab from PR000265, 4-1BB VH from PR001760; L1 H1_15, L2 human IgG1 hinge (C220S); human IgG1 (LALA); also called PD-L1×4-1BB bispecific antibody molecule with the Fab-HCAb symmetric structure
B11: PR007164 (bispecific antibody, human IgG1)
chain 1: EVQLVESGGGLVQPGGSLRLSCAASGFTFSSYWMSWVRQAPGKGLEWVANIKQEGSEKYYVDSVKGRFTISRDNAKNSLYLQMNSLRAEDTAVYYCARDRAVAGAFDIWGQGTMVTVSSASTKGPSVFPLAPSSKSTSGGTAALGCLVKDYFPEPVTVSWNSGALTSGVHTFPAVLQSSGLYSLSSVVTVPSSSLGTQTYICNVNHKPSNTKVDKKVEPKSC
chain 2: not shown
notes: Structure 3, Fab(CL)-VH-Fc (Fab-HCAb); PD-L1 Fab from PR000265, 4-1BB VH from PR001760; no first linker, second linker human IgG1 hinge (C220S); human IgG1 (LALA); also called PD-L1×4-1BB bispecific antibody molecule, structure (3)

These binders were tested against T1, human 4-1BB (human, UniProt Q07011 24-255) (assay: flow cytometry, CHO-K1/hu 4-1BB cells).
T1 construct: whole, on cells; Expressed on CHO-K1/hu 4-1BB cells (GenScript, M00538); also called CD137; TNFRSF9
T1 sequence (Q07011 24-255): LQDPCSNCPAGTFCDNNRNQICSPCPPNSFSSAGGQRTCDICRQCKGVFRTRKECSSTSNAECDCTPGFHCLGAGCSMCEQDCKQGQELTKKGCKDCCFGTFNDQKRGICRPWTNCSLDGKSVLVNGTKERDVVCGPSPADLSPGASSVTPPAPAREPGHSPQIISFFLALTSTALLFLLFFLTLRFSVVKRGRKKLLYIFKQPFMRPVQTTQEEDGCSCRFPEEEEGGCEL
Experimental: The binding ability of the binding protein to a CHO-K1 cell line CHO-K1/hu 4-1BB (GenScript, M00538) highly expressing human 4-1BB and a CHO-K1 cell line CHO-K1/cyno 4-1BB (GenScript, M00569) highly expressing cynomolgus monkey 4-1BB were determined by flow cytometry FACS. Specifically, the cells were digested and resuspended in a complete medium, and the cell density was adjusted to 2×10⁶ cells/mL. […] The cells were incubated at 4° C. for 1 h away from light. Then, the cells in each well were rinsed twice with 100 μL of pre-cooled FACS buffer (PBS buffer containing 0.5% BSA) and centrifuged at 500 g at 4° C. for 5 min, and then the supernatant was discarded. […] Then, the cells in each well were then rinsed twice with 200 μL of pre-cooled FACS buffer and centrifuged at 500 g at 4° C. for 5 min, and then the supernatant was discarded. Finally, a pre-cooled FACS buffer was added at 200 μL/well to resuspend the cells. Fluorescence signal values were read using a BD FACS CANTOII flow cytometer or an ACEA NovoCyte flow cytometer, and the data were processed and analyzed using FlowJo v10 (FlowJo, LLC) software.

Binding result, binds:
B1
B2
B3
B4
B5
B6

The binders below were run against T2, human PD-L1 (human, UniProt Q9NZQ7 19-290) (assay: flow cytometry, CHO-K1/hPD-L1 cells).
T2 construct: whole, on cells; Expressed on CHO-K1/hPD-L1 cells (GenScript, M00543); also called CD274; B7-H1
T2 sequence (Q9NZQ7 19-290): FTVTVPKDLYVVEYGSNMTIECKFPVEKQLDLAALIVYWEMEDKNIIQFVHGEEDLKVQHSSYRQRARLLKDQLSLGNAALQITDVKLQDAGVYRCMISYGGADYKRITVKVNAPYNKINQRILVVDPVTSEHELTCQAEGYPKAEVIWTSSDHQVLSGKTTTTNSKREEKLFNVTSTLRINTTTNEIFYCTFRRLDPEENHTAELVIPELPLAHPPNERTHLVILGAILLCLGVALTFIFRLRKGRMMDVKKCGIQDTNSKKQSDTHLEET

Binding result, binds:
B1
B7
B8
B2
B9
B10
B11
